Assay results: publication PMC5181682 (Nucleic Acids Research, 2016)
Each block holds one binder with its values, some of them ahead of it.

B2: Proliferating cell nuclear antigen (PCNA1) of Thermococcus kodakarensis (natural protein)
chain: MPFEVVFDGAKEFADLIATASNLIDEAAFKFTEEGISMRAMDPSRVVLIDLNLPESIFSKYEVEEPETIGINMDQFKKILKRGKAKDTLILRKGDENFLEITFEGTAKRTFRLPLIDVEELELELPELPFTAKVVLLGEVLKEGIKDASLVSDAIKFIAKENEFTMKAEGETNEVEIRLTLEDEGLLDLEVEEETKSAYGIRYLSDMVKGIGKADEVILRFGNEMPLQMEYMIRDEGRLTFLLAPRVEE

Experiments:
[1] = molecular target: the molecule itself; assay: SAXS; PCNA:TIP peptide complex at 6.4, 4.8, 4.1 and 2.1 mg/ml, purified by SEC, 50 mM Tris-HCl pH 7.3, 200 mM NaCl, room temperature; fit to a two-member ensemble (1:1 Model A and 2:2 Model C); 2:2 form to 1:1 complexes
[2] = molecular target: B2; assay: crystal structure; PCNA with TIP peptide (residues 28-64); same space group as PCNA:TIP; 3.4 Å; conditions: both partners purified
[3] = molecular target: the molecule itself; assay: SAXS; free PCNA in 50 mM Tris-HCl pH 7.3, 200 mM NaCl, room temperature; fit to the crystal structure PDB 3LX1
[4] = molecular target: B2; assay: crystal structure; PCNA with FEN-1 peptide, ratio about 1:5, sitting drop; well 2.8 M ammonium sulfate, 100 mM citric acid pH 5.3, 10% PEG 4000; 2.0 Å; conditions: both partners purified
[5] = molecular target: B2; assay: crystal structure; PCNA with full length TIP, ratio about 1:1.2, hanging drop; well 1.2 M ammonium sulfate, 50 mM sodium citrate pH 4.0, 10% glycerol; 2.8 Å; conditions: both partners purified

B1: PCNA:TIP peptide complex (1:1) (complex)
chain: MPFEVVFDGAKEFADLIATASNLIDEAAFKFTEEGISMRAMDPSRVVLIDLNLPESIFSKYEVEEPETIGINMDQFKKILKRGKAKDTLILRKGDENFLEITFEGTAKRTFRLPLIDVEELELELPELPFTAKVVLLGEVLKEGIKDASLVSDAIKFIAKENEFTMKAEGETNEVEIRLTLEDEGLLDLEVEEETKSAYGIRYLSDMVKGIGKADEVILRFGNEMPLQMEYMIRDEGRLTFLLAPRVEE
peptide: RLKPTSLDSFLPEEHINYFRDLRIGSKKIRNAKIEEL
Kd [1]: ~100 µM | stoichiometry N [1]: 2

Binder: B2
stoichiometry N [3]: 3

Results, then the binder that gave them:

binding result [2]: binds
Binder: RLKPTSLDSFLPEEHINYFRDLRIGSKKIRNAKIEEL (peptide, UniProt Q5JH72 28-64, looked up) [TIP peptide (residues 28-64)]

binding result [4]: binds
Binder: KQRTLESWFGR (peptide, UniProt Q5JGN0 330-340, looked up) [flap endonuclease 1 (FEN-1) peptide (residues 330-340)]

binding result [5]: binds
B3: TIP (Thermococcales inhibitor of PCNA), full length (natural protein, T. kodakarensis, UniProt Q5JH72 1-64, looked up)
chain: MDRKLDEFIGDATPKKVSKEKPVRRKKRLKPTSLDSFLPEEHINYFRDLRIGSKKIRNAKIEEL
